Reference: paper PMC6279779

Key:
[1] = molecular target: soluble domain of Arabidopsis thaliana cytochrome c1 (Arabidopsis thaliana)
[2] = molecular target: soluble domain of Arabidopsis thaliana cytochrome c1 (Arabidopsis thaliana); remark: listed apart in the source

Work on “Homo sapiens E104C cytochrome c mutant (from UniProt P99999 1-105) (natural protein)” yielded a distance decay factor (β) of the pCc1–hCc current after addition of wild-type hCc (12.5 μM, without C-terminal cysteine) to the medium, as an inhibition experiment [1] of 3 nm^−1 and an average distance decay factor (β) of the pCc1–hCc current against the electrochemical gate potential at 200 mV constant bias; minimum at −0.25 V EC gate potential [2] of 0.5 nm^−1.
